From patent publication US20250092148A1 (Kyowa Kirin, published 2025)
Numbering of substitutions follows the chain as printed.

Key:
Experiment in all cases: flow cytometry, Fab on HEK-293T cells expressing the mutant; labels of this column stand one row too low, mutant assigned after shifting them up
human CD131 G198A = target: T1, human CD131 G198A (human, UniProt P32927 17-897)
T1 construct: whole, on cells
T1 sequence (looked up): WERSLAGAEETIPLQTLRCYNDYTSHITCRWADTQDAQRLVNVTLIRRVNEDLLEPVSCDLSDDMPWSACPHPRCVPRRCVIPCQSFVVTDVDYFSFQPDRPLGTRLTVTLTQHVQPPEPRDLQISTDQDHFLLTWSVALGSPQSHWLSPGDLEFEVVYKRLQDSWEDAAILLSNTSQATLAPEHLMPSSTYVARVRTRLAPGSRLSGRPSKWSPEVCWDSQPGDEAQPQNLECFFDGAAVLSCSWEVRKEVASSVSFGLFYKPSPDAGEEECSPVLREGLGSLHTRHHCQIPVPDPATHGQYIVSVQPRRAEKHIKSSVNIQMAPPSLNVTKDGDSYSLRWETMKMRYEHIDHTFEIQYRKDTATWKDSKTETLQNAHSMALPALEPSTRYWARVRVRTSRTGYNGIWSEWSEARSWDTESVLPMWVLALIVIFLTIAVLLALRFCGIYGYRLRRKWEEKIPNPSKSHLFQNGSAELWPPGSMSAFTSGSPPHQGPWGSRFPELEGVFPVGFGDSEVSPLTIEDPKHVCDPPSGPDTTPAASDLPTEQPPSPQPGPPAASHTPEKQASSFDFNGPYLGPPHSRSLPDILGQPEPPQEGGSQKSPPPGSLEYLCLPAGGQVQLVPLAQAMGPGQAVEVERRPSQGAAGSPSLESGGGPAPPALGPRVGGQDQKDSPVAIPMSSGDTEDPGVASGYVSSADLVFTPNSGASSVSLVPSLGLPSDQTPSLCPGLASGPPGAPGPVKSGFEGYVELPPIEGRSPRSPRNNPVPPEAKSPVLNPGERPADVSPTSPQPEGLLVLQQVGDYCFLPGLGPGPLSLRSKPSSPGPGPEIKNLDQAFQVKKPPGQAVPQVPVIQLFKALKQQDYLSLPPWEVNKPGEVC

human CD131 P199A = target: T2, human CD131 P199A (human, UniProt P32927 17-897)
T2 construct: whole, on cells
T2 sequence (looked up): T1 sequence (looked up) with A182G, P183A

human CD131 D144A = target: T3, human CD131 D144A (human, UniProt P32927 17-897)
T3 construct: whole, on cells
T3 sequence (looked up): T1 sequence (looked up) with D128A, A182G

B1: anti-CD131 antibody 131-B2, Fab (Fab, V domains shown)
VH: QVQLVQSGAEVKEPGASVKISCKASGYTFTNDYMHWVRQAPGQGLEWMGIINPTGGGTSYAQKFRGRVTMTRDTSTSTVYMELSSLRSEDTAVFYCARERYYGSGTYFNIGLWYFDLWGRGTLVTVSS
VL: not shown
notes: Fab made from the antibody by an enzyme treatment
Human CD131 G198A
  Binding Reactivity (% WT): 194 % WT
Human CD131 P199A
  Binding Reactivity (% WT): 96.8 % WT
Human CD131 D144A
  Binding Reactivity (% WT): 129 % WT
